Data taken from article PMC4822050, “Hemi-methylated DNA opens a closed conformation of UHRF1 to facilitate its histone recognition” (Nature Communications, 2016).
One block for each molecule: values may come before it.

How the values were obtained:
H3K9me3 peptide (1–17) = assay: ITC, H3K9me3 peptide (1-17) titrated into UHRF1 proteins; assay type: binding; conditions: ITC KD ratio
Description: (§1) For competition ITC experiments: the indicated proteins were pre-incubated with competitive peptide, protein or hm-DNA (at 1:2 molar ratio if not specified) for 10 min followed by ITC measurements as described above. Proteins, DNA and peptides were prepared within ITC buffer containing 10 mM HEPES, pH 8.0, 100 mM NaCl. The data were fitted by software Origin 7.0. All ITC results were summarized in Supplementary Table 2 and raw data were shown in Supplementary Fig. 9.

FAM-12bp-HM-DNA = assay: Fluorescence polarization, 12-bp FAM-hm-DNA; assay type: binding; conditions: for Kd: FP
Description: A 6-carboxy-fluorescein (FAM)-labelled primer, 5′-CCATGCGCTGAC-3′, was annealed to a primer 5′-GTCAGXGCATGG-3′ (X=5-methyldeoxycytosine). The hemi-methylated double-strand DNA was used in both electrophoretic mobility-shift assay and FP assays. […] The samples were subjected to a 10% polyacrylamide gel electrophoresis and run in 0.5 × Tris-borate-EDTA buffer at 100 V for 1 h at 4 °C. The results were visualized on Tanon-5200 Chemiluminescent Imaging System (Tanon Science & Technology Co., Ltd).
(§2) FP measurements were performed at 25 °C on Synergy 4 Microplate Reader (BioTek). The 16-bp and 20-bp FAM-labelled hm-DNA (lower strand: 5′-GTGTCAGXGCATGGCC-3′ and 5′-CCGTGTCAGXGCATGGCCAT-3′, respectively. X=5-methyldeoxycytosine) were used in the FP experiment to test the effect of DNA length on the protein/DNA interaction. All experiments were performed in triplicate. The curves were fitted by GraphPad Prism 5. For salt concentration-dependent FP experiments, the reaction buffer contains 50 mM or 150 mM NaCl, respectively.

[1] = system: DAPI foci (pericentromeric heterochromatin) in NIH3T3 cells; assay: Subcellular localization of GFP-tagged UHRF1 in NIH3T3 cells; assay type: cell-based; conditions: GFP-tagged protein transiently overexpressed in NIH3T3 cells, 36 h after transfection; at least 100 cells counted; repeated three times
Description: NIH3T3 cells were obtained from the Shanghai Institute of Biochemistry and Cell Biology. Wild type and mutants of UHRF1 were sub-cloned into pEGFP-C1 vector. Transient transfections of NIH3T3 cells were carried out using Lipofectamine 2000 (Invitrogen). The NIH3T3 cells were grown on glass coverslips and harvested in 36 h after transfection. The images were acquired and examined as previously described. Briefly, cells were fixed with 4% paraformaldehyde for 25 min, then washed with PBS three times. Coverslips were mounted with Antifade reagent containing DAPI (Molecular Probes) on slides and examined with a confocal microscopy.

[2] = molecular target: T1, TTD (residues 134–285) of UHRF1 (Homo sapiens, UniProt Q96T88); assay: ITC, TTD titrated into Spacer variants and other UHRF1 fragments; assay type: binding; conditions: TTD in syringe
T1 construct: TTD (residues 134–285); GST (N, cleaved yes); made in house; host or cells: E. coli BL21 (DE3)
T1 sequence (Q96T88 134-285): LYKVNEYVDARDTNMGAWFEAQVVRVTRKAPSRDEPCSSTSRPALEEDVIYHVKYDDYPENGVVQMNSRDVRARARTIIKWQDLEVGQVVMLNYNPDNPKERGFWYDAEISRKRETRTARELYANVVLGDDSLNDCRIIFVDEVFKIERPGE
Description: as §1

hm-DNA (12 bp) = assay: ITC, hm-DNA titrated into UHRF1 domains; assay type: binding; conditions: 18 °C, 12-bp hm-DNA in syringe, named protein in cell, 10 mM HEPES pH 8.0, 100 mM NaCl
Description: as §1

RFTS^DNMT1 = assay: ITC, RFTS of DNMT1 with SRA or SRA-Spacer; assay type: binding; conditions: 18 °C, RFTS^DNMT1 with named protein, 10 mM HEPES pH 8.0, 100 mM NaCl
Description: as §1

FAM-16bp-HM-DNA = assay: Fluorescence polarization, 16-bp FAM-hm-DNA; assay type: binding; conditions: FP, DNA length series
Description: as §2

FAM-20bp-HM-DNA = assay: Fluorescence polarization, 20-bp FAM-hm-DNA; assay type: binding; conditions: FP, DNA length series
Description: as §2

[3] = 25 °C, 20 min, 20 mM HEPES pH 7.5, 175 mM NaCl, 8% glycerol, 1 mM DTT, triplicate, Fig. 5b and Supplementary Table 4

fold higher binding affinity to H3K9me3 peptide than full-length UHRF1 (H3K9me3 peptide (1–17)): four | factor of decrease in hm-DNA-binding affinity compared with full-length UHRF1 (FAM-12bp-HM-DNA; FP KD ratio): 14 | Kd (FAM-12bp-HM-DNA; [3]): 4940 ± 1090 nM
B1: UHRF1∆627-674: spacer deletion mutant of UHRF1 (residues 627–674 deleted) (protein)
chain: MWIQVRTMDGRQTHTVDSLSRLTKVEELRRKIQELFHVEPGLQRLFYRGKQMEDGHTLFDYEVRLNDTIQLLVRQSLVLPHSTKERDSELSDTDSGCCLGQSESDKSSTHGEAAAETDSRPADEDMWDETELGLYKVNEYVDARDTNMGAWFEAQVVRVTRKAPSRDEPCSSTSRPALEEDVIYHVKYDDYPENGVVQMNSRDVRARARTIIKWQDLEVGQVVMLNYNPDNPKERGFWYDAEISRKRETRTARELYANVVLGDDSLNDCRIIFVDEVFKIERPGEGSPMVDNPMRRKSGPSCKHCKDDVNRLCRVCACHLCGGRQDPDKQLMCDECDMAFHIYCLDPPLSSVPSEDEWYCPECRNDASEVVLAGERLRESKKKAKMASATSSSQRDWGKGMACVGRTKECTIVPSNHYGPIPGIPVGTMWRFRVQVSESGVHRPHVAGIHGRSNDGAYSLVLAGGYEDDVDHGNFFTYTGSGGRDLSGNKRTAEQSCDQKLTNTNRALALNCFAPINDQEGAEAKDWRSGKPVRVVRNVKGGKNSKYAPAEGNRYDGIYKVVKYWPEKGKSGFLVWRYLLRRDDDEPGPWTKEGKDRIKKLGLTMQYPEGYLEALANREREKENSKSLTAQQSSLIREDKSNAKLWNEVLASLKDRPASGSPFQLFLSKVEETFQCICCQELVFRPITTVCQHNVCKDCLDRSFRAQVFSCPACRYDLGRSYAMQVNQPLQTVLNQLFPGYGNGR
modifications: left off: GST, end not stated, cleaved
percentage of cells showing co-localization with DAPI foci [1]: 22.1%

N ([2]; ITC stoichiometry): 0.788±0.0108 | ΔH ([2]; ITC): -1.199E4±224.9 cal/mol | ΔS ([2]; ITC): -13.3 cal/mol/deg | Kd (hm-DNA (12 bp)): 1750 nM | Kd (RFTS^DNMT1): 7090 nM | Kd (FAM-12bp-HM-DNA; 12-bp hm-DNA, 50 mM NaCl): 24 ± 3.7 nM | Kd (FAM-12bp-HM-DNA; 12-bp hm-DNA, 150 mM NaCl): 580 ± 98 nM | Kd (FAM-12bp-HM-DNA; [3]): 490 nM | Kd (FAM-12bp-HM-DNA; DNA length series, Supplementary Table 5, 12-bp hm-DNA): 340 ± 90 nM | Kd (FAM-12bp-HM-DNA; values as printed in Fig. 5c (Spacer truncation mapping)): 490 nM | Kd (FAM-16bp-HM-DNA): 390 ± 70 nM | Kd (FAM-20bp-HM-DNA): 400 ± 70 nM
B2: SRA–Spacer: human UHRF1 residues 414–674 (protein)
chain: PSNHYGPIPGIPVGTMWRFRVQVSESGVHRPHVAGIHGRSNDGAYSLVLAGGYEDDVDHGNFFTYTGSGGRDLSGNKRTAEQSCDQKLTNTNRALALNCFAPINDQEGAEAKDWRSGKPVRVVRNVKGGKNSKYAPAEGNRYDGIYKVVKYWPEKGKSGFLVWRYLLRRDDDEPGPWTKEGKDRIKKLGLTMQYPEGYLEALANREREKENSKREEEEQQEGGFASPRTGKGKWKRKSAGGGPSRAGSPRRTSKKTKVEPY
modifications: left off: GST, end not stated, cleaved
